Patent publication US20080008703A1 (YUHAN, published 2008)
Positions count from the first letter of the chain named.

B1: humanized antibody YHB1411 (antibody, V domains shown)
VH: QVQLVQSGPELKKPGASVKVSCKASGYTFTHYGMNWVRQAPGKGLEWMGWINTNTGEPRYDEEFKGRVTMTRDTSASTAYMELSSLRSEDTAVYYCARYDSRGFDCWGQGTTVTVSS
VL: QIVMTQSPSSLSASVGERVTITCTASSSISYNYFHWYQQKPGSAPKLWIYSSSNLASGVPSRFSGSGSGTDFTFTISSLQPEDIATYYCHQYERSPWTFGGGTKVEIKR
notes: Human heavy and kappa light constant regions come from pHAB-HC and pHAB-KC
B2: humanized antibody YHB1406 (antibody, V domains shown)
VH: B1 VH with K43Q
VL: B1 VL
notes: Human heavy chain constant region comes from vector pHAB-HC and human kappa light chain constant region from pHAB-KC
B3: humanized antibody YHB1406-2 (antibody, V domains shown)
VH: B1 VH with V113L
VL: B1 VL with Q1D
notes: as for B1
B4: humanized antibody YHB1411-2 (antibody, V domains shown)
VH: B1 VH
VL: B1 VL with Q1D
notes: Human heavy and kappa light constant regions come from pHAB-HC and pHAB-KC; also called YBB1411-2
B5: mouse monoclonal antibody TSK114 (antibody, V domains shown)
VH: QVQLVQSGPELKKPGETVKISCKASGYTFTHYGMNWVKQAPGEGLKWMGWINTNTGEPRYDEEFKGRFAFSLETSASTAYLQINNLRREDTATYFCARYDSRGFDCWGQGTTLTVSS
VL: QIVLTQSPAIMSASLGERVTMTCTASSSISYNYFHWYQQRPGSSPKLWIYSSSNLASGVPPRISGSGSGTSYSLTISSMEAEDAATYYCHQYERSPWTFGGGTKLEIKR
notes: Mouse monoclonal antibody (deposits KCTC 10514BP and KCTC 10515BP); also called Mouse antibody TSK114

Tests used:
[1] = biological target: T1, recombinant human tumor necrosis factor-α (Biosource, USA) (human, UniProt P01375 77-233); assay: cell-based or functional assay
T1 sequence (P01375 77-233 limits assumed): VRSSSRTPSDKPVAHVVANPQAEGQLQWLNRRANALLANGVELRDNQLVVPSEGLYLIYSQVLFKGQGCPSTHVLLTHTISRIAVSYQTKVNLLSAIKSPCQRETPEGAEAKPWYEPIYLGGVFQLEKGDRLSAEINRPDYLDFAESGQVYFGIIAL

[2] = biological target: T1, recombinant human tumor necrosis …; assay: competitive ELISA (Friguet method), antibody pre-incubated with soluble hTNF-α, plate coated with hTNF-α
Protocol: For antibody quantification, 100 ng of goat anti-human immunoglobulin G.A.M (Zymed Laboratories Inc., USA) was distributed into each well of a microplate (Dynatech Laboratories Inc., USA) and the well plate was kept at 4° C. overnight to coat it with the immunoglobulin. At this time, mouse monoclonal antibody TSK114 was used as a control.
Each of the reactants was added to the well plate coated with 0.4 μg of the antigen and the well plate was kept at 37° C. for about 1.5 hrs. A goat anti-human polyclonal antibody (BioRad, USA) conjugated with horseradish peroxidase was diluted at a ratio of 1:1000 and 100 μl of the diluted antibody solution was added to each well. The well plate was kept at 37° C. for 1 hr. After the reaction was completed, the optical density of each well was measured using a horseradish peroxidase substrate kit (BioRad, USA).
Concentrations of the antibody bound to the antigen and the unbound antibody were calculated from the measured optical density, and antigen-binding affinity of the humanized antibodies were determined therefrom (Friguet B. et al., J. Immunol. Meth., 77: 305-319, 1985).

[3] = biological target: T1, recombinant human tumor necrosis …; assay: SPR (Biacore2000), hTNF-α immobilized on CM5 chip, antibody 25-400 nM as analyte
Protocol: (§1) Then, association and dissociation constants of the reactions were measured by Biacore2000 (Biacore, Sweden).

[4] = biological target: T1, recombinant human tumor necrosis …; assay: SPR (Biacore2000), hTNF-α immobilized
Protocol: as §1

Row | Binder | IC50 (concentration of the antibodies inhibiting cell death by 50%), WHEI 164 cells, MTT [1] [ng/mL] | Kd [2] [nM] | Kd [3] [nM] | koff [3] [s⁻¹] | kon [3] [M⁻¹ s⁻¹] | fold higher antigen binding affinity than mouse monoclonal antibody TSK114 [4] [fold]
1 | B1 | 6.7 | 0.2 | – | – | – | –
2 | B2 | 9.2 | 0.22 | – | – | – | –
3 | B3 | 6.5 | 0.29 | – | – | – | –
4 | B4 | 5.5 | 0.2 | 0.00171 | 6.8e-08 | 39600 | ~3
5 | B5 | 4.7 | 0.14 | 0.00579 | 2.39e-07 | 41200 | –
